Source: patent publication US20240270846A1 (published 2024)
Positions count from the first letter of the chain named. Names may count otherwise.

B1: CE115HA000/GLS3000 R54G one-arm antibody (antibody, human IgG1, kappa, L234A L235A, N297A, name in Kabat numbering)
heavy: QVQLVESGGGVVQPGRSLRLSCAASGFTFSNAWMHWVRQAPGKGLEWVAQIKAKSNNYATYYAESVKGRFTISRDDSKNSLYLQMNSLKTEDTAVYYCRYVHYGAYYGVDAWGQGTTVTVSSASTKGPSVFPLAPSSKSTSGGTAALGCLVKDYFPEPVTVSWNSGALTSGVHTFPAVLQSSGLYSLSSVVTVPSSSLGTQTYICNVNHKPSNTKVDKKVEPKSCDKTHTCPPCPAPEAAGGPSVFLFPPKPKDTLMISRTPEVTCVVVDVSHEDPEVKFNWYVDGVEVHNAKTKPREEQYASTYRVVSVLTVLHQDWLNGKEYKCKVSNKALPAPIEKTISKAKGQPREPQVYTLPPSRCELTKNQVSLSCAVKGFYPSDIAVEWESNGQPENNYKTTPPVLDSDGSFFLVSKLTVDKSRWQQGNVFSCSVMHEALHNHYTQKSLSLSPDYKDDDDK
chain: EPKSSDKTHTCPPCPAPELLGGPSVFLFPPKPKDTLMISRTPEVTCVVVDVSHEDPEVKFNWYVDGVEVHNAKTKPREEQYNSTYRVVSVLTVLHQDWLNGKEYKCKVSNKALPAPIEKTISKAKGQPREPQVCTLPPSRDELTKNQVSLWCLVKGFYPSDIAVEWESNGQPENNYKTTPPVLDSDGSFFLYSKLTVDKSRWQQGNVFSCSVMHEALHNRYTQKSLSLSP
light: DIVMTQSPLSLPVTPGEPASISCRSSQSLVHSNRNTYLHWYQQKPGQAPRLLIYKVSNGFSGVPDRFSGSGSGTDFTLKISRVEAEDVGVYYCGQGTQVPYTFGQGTKLEIKRTVAAPSVFIFPPSDEQLKSGTASVVCLLNNFYPREAKVQWKVDNALQSGNSQESVTEQDSKDSTYSLSSTLTLSKADYEKHKVYACEVTHQGLSSPVTKSFNRGEC
notes: one-arm IgG1
B2: CE115HA000/GLS3000 S56H one-arm antibody (antibody, human IgG1, kappa, L234A L235A, N297A, name in Kabat numbering)
heavy: B1 heavy
chain: B1 chain
light: B1 light with G59R, S61H
notes: one-arm IgG1
B3: CE115HA000/GLS3000 S56E one-arm antibody (antibody, human IgG1, kappa, L234A L235A, N297A, name in Kabat numbering)
heavy: B1 heavy
chain: B1 chain
light: B1 light with G59R, S61E
notes: one-arm IgG1
B4: CE115HA000/GLS3000 S56F one-arm antibody (antibody, human IgG1, kappa, L234A L235A, N297A, name in Kabat numbering)
heavy: B1 heavy
chain: B1 chain
light: B1 light with G59R, S61F
notes: one-arm IgG1
B5: CE115HA000/GLS3000 S56I one-arm antibody (antibody, human IgG1, kappa, L234A L235A, N297A, name in Kabat numbering)
heavy: B1 heavy
chain: B1 chain
light: B1 light with G59R, S61I
notes: one-arm IgG1
B6: CE115HA000/GLS3000 S52P one-arm antibody (antibody, human IgG1, kappa, L234A L235A, N297A, name in Kabat numbering)
heavy: B1 heavy
chain: B1 chain
light: B1 light with S57P, G59R
notes: one-arm IgG1
B7: CE115HA000/GLS3000 S52Q one-arm antibody (antibody, human IgG1, kappa, L234A L235A, N297A, name in Kabat numbering)
heavy: B1 heavy
chain: B1 chain
light: B1 light with S57Q, G59R
notes: one-arm IgG1
B8: CE115HA000/GLS3000 S52D one-arm antibody (antibody, human IgG1, kappa, L234A L235A, N297A, name in Kabat numbering)
heavy: B1 heavy
chain: B1 chain
light: B1 light with S57D, G59R
notes: one-arm IgG1
B9: CE115HA000/GLS3000 S56R one-arm antibody (antibody, human IgG1, kappa, L234A L235A, N297A, name in Kabat numbering)
heavy: B1 heavy
chain: B1 chain
light: B1 light with G59R, S61R
notes: one-arm IgG1
B10: CE115HA000/GLS3000 S56D one-arm antibody (antibody, human IgG1, kappa, L234A L235A, N297A, name in Kabat numbering)
heavy: B1 heavy
chain: B1 chain
light: B1 light with G59R, S61D
notes: one-arm IgG1
B11: CE115HA000/GLS3000 R54S one-arm antibody (antibody, human IgG1, kappa, L234A L235A, N297A, name in Kabat numbering)
heavy: B1 heavy
chain: B1 chain
light: B1 light with G59S
notes: one-arm IgG1
B12: CE115HA000/GLS3000 R54Q one-arm antibody (antibody, human IgG1, kappa, L234A L235A, N297A, name in Kabat numbering)
heavy: B1 heavy
chain: B1 chain
light: B1 light with G59Q
notes: one-arm IgG1
B13: CE115HA000/GLS3000 S56N one-arm antibody (antibody, human IgG1, kappa, L234A L235A, N297A, name in Kabat numbering)
heavy: B1 heavy
chain: B1 chain
light: B1 light with G59R, S61N
notes: one-arm IgG1
B14: CE115HA000/GLS3000 R54P one-arm antibody (antibody, human IgG1, kappa, L234A L235A, N297A, name in Kabat numbering)
heavy: B1 heavy
chain: B1 chain
light: B1 light with G59P
notes: one-arm IgG1
B15: CE115HA000/GLS3000 S56M one-arm antibody (antibody, human IgG1, kappa, L234A L235A, N297A, name in Kabat numbering)
heavy: B1 heavy
chain: B1 chain
light: B1 light with G59R, S61M
notes: one-arm IgG1
B16: CE115HA000/GLS3000 S56K one-arm antibody (antibody, human IgG1, kappa, L234A L235A, N297A, name in Kabat numbering)
heavy: B1 heavy
chain: B1 chain
light: B1 light with G59R, S61K
notes: one-arm IgG1
B17: CE115HA000/GLS3000 S56G one-arm antibody (antibody, human IgG1, kappa, L234A L235A, N297A, name in Kabat numbering)
heavy: B1 heavy
chain: B1 chain
light: B1 light with G59R, S61G
notes: one-arm IgG1
B18: CE115HA000/GLS3000 S52Y one-arm antibody (antibody, human IgG1, kappa, L234A L235A, N297A, name in Kabat numbering)
heavy: B1 heavy
chain: B1 chain
light: B1 light with S57Y, G59R
notes: one-arm IgG1
B19: CE115HA000/GLS3000 S56P one-arm antibody (antibody, human IgG1, kappa, L234A L235A, N297A, name in Kabat numbering)
heavy: B1 heavy
chain: B1 chain
light: B1 light with G59R, S61P
notes: one-arm IgG1
B20: CE115HA000/GLS3000 R54W one-arm antibody (antibody, human IgG1, kappa, L234A L235A, N297A, name in Kabat numbering)
heavy: B1 heavy
chain: B1 chain
light: B1 light with G59W
notes: one-arm IgG1
B21: CE115HA000/GLS3000 S56L one-arm antibody (antibody, human IgG1, kappa, L234A L235A, N297A, name in Kabat numbering)
heavy: B1 heavy
chain: B1 chain
light: B1 light with G59R, S61L
notes: one-arm IgG1
B22: CE115HA000/GLS3000 S56Q one-arm antibody (antibody, human IgG1, kappa, L234A L235A, N297A, name in Kabat numbering)
heavy: B1 heavy
chain: B1 chain
light: B1 light with G59R, S61Q
notes: one-arm IgG1
B23: CE115HA000/GLS3000 R54T one-arm antibody (antibody, human IgG1, kappa, L234A L235A, N297A, name in Kabat numbering)
heavy: B1 heavy
chain: B1 chain
light: B1 light with G59T
notes: one-arm IgG1

Molecular target: T1, CD3 epsilon homodimer protein (UniProt P07766 23-126)
T1 construct: also called CD3 (CD3 epsilon)
T1 sequence (P07766 23-126): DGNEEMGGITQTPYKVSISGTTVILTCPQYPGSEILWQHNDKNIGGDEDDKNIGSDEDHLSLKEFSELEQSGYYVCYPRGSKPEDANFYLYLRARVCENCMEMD
Assay: SPR (Biacore T200), CD3e homodimer on CM4 chip, antibody as analyte; KD ratio vs unaltered GLS3000;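 also: CD3 epsilon homodimer amine-coupled to the sensor surface, antibodies injected as analyte at 25 °C with HBS-EP+ running buffer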

| KD ratio to GLS3000 | Binder |
| --- | --- |
| 0.88 ratio | B1 |
| 0.96 ratio | B2 |
| 0.91 ratio | B3 |
| 1.12 ratio | B4 |
| 1.01 ratio | B5 |
| 7.38 ratio | B6 |
| 1.01 ratio | B7 |
| 0.94 ratio | B8 |
| 1.15 ratio | B9 |
| 1.11 ratio | B10 |
| 0.78 ratio | B11 |
| 1.04 ratio | B12 |
| 0.9 ratio | B13 |
| 1.05 ratio | B14 |
| 0.93 ratio | B15 |
| 1.21 ratio | B16 |
| 0.99 ratio | B17 |
| 1.02 ratio | B18 |
| 0.98 ratio | B19 |
| 0.65 ratio | B20 |
| 1.03 ratio | B21 |
| 0.97 ratio | B22 |
| 0.89 ratio | B23 |
